# Measurements reported in publication PMC4746701, “Crystal structure of SEL1L: Insight into the roles of SLR motifs in ERAD pathway” (Scientific Reports, 2016).
# How the values were obtained:
# [1] = target: T1, MBP-SEL1L SLR-C (SLR motifs 10 and 11, residues 639–719) (Mus musculus, UniProt Q9Z2G6 639-719); assay: pull-down; 400 μg GST-HRD1 luminal fragment on glutathione sepharose 4B beads, 100 μg MBP-SEL1L protein; 150 mM NaCl, 25 mM sodium phosphate pH 7.5, 5 mM DTT; 4 °C, 15 minutes; SDS-PAGE, Coomassie; details: both partners purified
# T1 construct: SEL1L, Mus musculus, residues 639-719 (SLR-C); source: purified; not shown: MBP, N-terminal, kept
# [2] = target: the molecule itself; assay: cross-linking; glutaraldehyde (0.005%) or dimethyl suberimidate (0.3 mM), products analysed by SDS-PAGE
# [3] = target: the molecule itself; assay: SEC; Superdex 200; 25 mM Tris, 150 mM NaCl, 5 mM DTT, pH 7.5
# T1 sequence (Q9Z2G6 639-719): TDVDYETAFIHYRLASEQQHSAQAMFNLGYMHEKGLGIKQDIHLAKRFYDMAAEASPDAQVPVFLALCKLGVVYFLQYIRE
Binder,stoichiometry N [2],binding result [3],other results
"HAYYLKHQFYPTVVYLTKSSPS (domain or fragment, mouse, UniProt Q9DBY1 21-42, looked up, HRD1 E3 ubiquitin ligase, mouse, N-terminal luminal loop, residues 21-42; also called N-terminal luminal loop of HRD1; HRD1 luminal fragment GST-fusion protein; source: GST-fusion protein immobilised on glutathione sepharose 4B beads) [GST-HRD1 N-terminal luminal loop (residues 21–42)]",–,–,binding result [1]: binds
"SEL1L^cent (mouse SEL1L central domain, SLR motifs 5 to 9, residues 348–533) (domain or fragment, Mus musculus, UniProt Q9Z2G6 348-533, looked up, Forms a homodimer (crystal, cross-linking, AUC, SEC); also called wild-type SEL1L^cent; source: purified) NSGMLEEDLIQYYQFLAEKGDVQAQVGLGQLHLHGGRGVEQNHQRAFDYFNLAANAGNSHAMAFLGKMYSEGSDIVPQSNETALHYFKKAADMGNPVGQSGLGMAYLYGRGVQVNYDLALKYFQKAAEQGWVDGQLQLGSMYYNGIGVKRDYKQALKYFNLASQGGHILAFYNLAQMHASGTGVMR",2,–,–
"SEL1L^long (mouse SEL1L residues 337–554) (domain or fragment, Mus musculus, UniProt Q9Z2G6 337-554, looked up, SEL1L, Mus musculus (790 amino acids), residues 337-554; also called the central region of SEL1L, residues 337–554; source: purified) RLPDEVENPGMNSGMLEEDLIQYYQFLAEKGDVQAQVGLGQLHLHGGRGVEQNHQRAFDYFNLAANAGNSHAMAFLGKMYSEGSDIVPQSNETALHYFKKAADMGNPVGQSGLGMAYLYGRGVQVNYDLALKYFQKAAEQGWVDGQLQLGSMYYNGIGVKRDYKQALKYFNLASQGGHILAFYNLAQMHASGTGVMRSCHTAVELFKNVCERGRWSER",2,–,–
"SEL1L^cent Q460A (negative control point mutant) (domain or fragment, Mus musculus, UniProt Q9Z2G6 348-533, looked up, source: purified) NSGMLEEDLIQYYQFLAEKGDVQAQVGLGQLHLHGGRGVEQNHQRAFDYFNLAANAGNSHAMAFLGKMYSEGSDIVPQSNETALHYFKKAADMGNPVGQSGLGMAYLYGRGVAVNYDLALKYFQKAAEQGWVDGQLQLGSMYYNGIGVKRDYKQALKYFNLASQGGHILAFYNLAQMHASGTGVMR",–,binds,–
"SEL1L^cent G512A (domain or fragment, Mus musculus, UniProt Q9Z2G6 348-533, looked up, source: purified) NSGMLEEDLIQYYQFLAEKGDVQAQVGLGQLHLHGGRGVEQNHQRAFDYFNLAANAGNSHAMAFLGKMYSEGSDIVPQSNETALHYFKKAADMGNPVGQSGLGMAYLYGRGVQVNYDLALKYFQKAAEQGWVDGQLQLGSMYYNGIGVKRDYKQALKYFNLASQAGHILAFYNLAQMHASGTGVMR",–,binds,–
"SEL1L^cent G513A (domain or fragment, Mus musculus, UniProt Q9Z2G6 348-533, looked up, source: purified) NSGMLEEDLIQYYQFLAEKGDVQAQVGLGQLHLHGGRGVEQNHQRAFDYFNLAANAGNSHAMAFLGKMYSEGSDIVPQSNETALHYFKKAADMGNPVGQSGLGMAYLYGRGVQVNYDLALKYFQKAAEQGWVDGQLQLGSMYYNGIGVKRDYKQALKYFNLASQGAHILAFYNLAQMHASGTGVMR",–,binds,–
